Results on ten molecules are retold here after patent US20240092889A1 (Chugai, published 2024).

Substitutions are numbered along the chain they refer to. Names and notes keep the numbering of the source.

B1: COS0637pHv8-TT91R (antibody, V domains shown)
VH: QVQLVESGGGVVQPGRSLRLSCAASGFTFSAYAMNWIRQPPGKGLEWIGLIYGSGHEFYASWAEERVTISVDTSKNQFSLKLSSVTAADTAVYYCARGRSKNYNSDFHLWGQGTLVTVSS
VL: DIQMTQSPSSLSASVGDRVTITCQANQILHDKKNLAWYQQKPGQPPKLLIYGASTLESGVPSRFSGSGSGTDFTLTISSLQPEDFATYYCHGEFSYSSADLNTFGQGTKVEIKR
B2: COS0637pHv4-TT91R (antibody, V domains shown)
VH: B1 VH with T28S, N104V, D106G
VL: B1 VL with N26S, G52Q, T55Q, S97E, T103Q
B3: COS0637pHv9-TT91R (antibody, V domains shown)
VH: B1 VH
VL: B1 VL with G52Q, T55Q, L56R, S95P, S97E
B4: COS0637temp-TT91R (antibody)
heavy: QVQLVESGGGVVQPGRSLRLSCAASGFTFSAYAMNWIRQPPGKGLEWIGLIYGSGSTFYASWAKGRVTISVDTSKNQFSLKLSSVTAADTAVYYCARGRSVNYNSDFHLWGQGTLVTVSSASTKGPSVFPLAPSSKSTSGGTAALGCLVKDYFPEPVTVSWNSGALTSGVHTFPAVLQSSGLYSLSSVVTVPSSSLGTQTYICNVNHKPSNTKVDKRVEPKSCDKTHTCPPCPAPEYLGGDSVFLFPPKPKDVLMISRTPEVTCVVIDVSHEDPEVKFNWYVDGVEVHNAKTKPREEQYNSTYRVVSVLPVLHRDWLNGKEYKCKVSNKALPKPIEKTISKAKGQRREPQVYTLPPSREEMTKNQVSLTCLVKGFYPSDIAVEWESNGQPENNYKTTPPVLDSDGSFFLYSKLTVDKSRWQQGNVFSCSVLHEALHAHTTRKELSLSP
light: DIQMTQSPSSLSASVGDRVTITCQASQSLHDKKNLAWYQQKPGQPPKLLIYGASTLESGVPSRFSGSGSGTDFTLTISSLQPEDFATYYCQGEFSCSSADCNTFGQGTKVEIKRTVAAPSVFIFPPSDEQLKSGTASVVCLLNNFYPREAKVQWKVDNALQSGNSQESVTEQDSKDSTYSLSSTLTLSKADYEKHKVYACEVTHQGLSSPVTKSFNRGEC
notes: COS0637h with K101H in HCDR3; CH TT91R, CL SK1
B5: COS0637pHv2-TT91R (antibody, V domains shown)
VH: B1 VH with T28R, S54K, H56S, E57T, E64K, K101V
VL: B1 VL with N26S, I28S, H91Q, Y96C, L101C
B6: COS0637pHv1-TT91R (antibody, V domains shown)
VH: B1 VH with G55K, H56S, E57T, E65G
VL: B1 VL with N26S, I28S, H91Q, Y96C, L101C
B7: COS0637pHv6-TT91R (antibody, V domains shown)
VH: B1 VH with T28S, N104V, D106G
VL: B1 VL with N26Q, K33R, G52Q, T55Q, S97E
B8: AL0737 (antibody, human IgG1, kappa, V domains shown)
VH: B1 VH with H56S, E57T, E64K, E65G, K101V
VL: B1 VL with N26S, I28S, H91Q, Y96W
notes: COS0637temp with VL C94W/C95dL (Kabat), already in the VL entry
B9: AL0744 (antibody, human IgG1, kappa, V domains shown)
VH: B1 VH with H56S, E57T, E64K, E65G, K101V
VL: B1 VL with N26S, I28S, H91Q, Y96W, L101M
notes: COS0637temp with VL C94W/C95dM (Kabat), already in the VL entry
B10: AL0743 (antibody, human IgG1, kappa, V domains shown)
VH: B1 VH with H56S, E57T, E64K, E65G, K101V
VL: B1 VL with N26S, I28S, H91Q
notes: COS0637temp with VL C94Y/C95dL (Kabat), already in the VL entry; template for further optimization

The target in the first assay is T1, recombinant human C1r2s2 tetramer (human, UniProt P09871 16-688; P00736 18-705).
T1 construct: C1s and C1r co-expressed in HEK293/FreeStyle 293-F and purified from conditioned medium
T1 chain 1: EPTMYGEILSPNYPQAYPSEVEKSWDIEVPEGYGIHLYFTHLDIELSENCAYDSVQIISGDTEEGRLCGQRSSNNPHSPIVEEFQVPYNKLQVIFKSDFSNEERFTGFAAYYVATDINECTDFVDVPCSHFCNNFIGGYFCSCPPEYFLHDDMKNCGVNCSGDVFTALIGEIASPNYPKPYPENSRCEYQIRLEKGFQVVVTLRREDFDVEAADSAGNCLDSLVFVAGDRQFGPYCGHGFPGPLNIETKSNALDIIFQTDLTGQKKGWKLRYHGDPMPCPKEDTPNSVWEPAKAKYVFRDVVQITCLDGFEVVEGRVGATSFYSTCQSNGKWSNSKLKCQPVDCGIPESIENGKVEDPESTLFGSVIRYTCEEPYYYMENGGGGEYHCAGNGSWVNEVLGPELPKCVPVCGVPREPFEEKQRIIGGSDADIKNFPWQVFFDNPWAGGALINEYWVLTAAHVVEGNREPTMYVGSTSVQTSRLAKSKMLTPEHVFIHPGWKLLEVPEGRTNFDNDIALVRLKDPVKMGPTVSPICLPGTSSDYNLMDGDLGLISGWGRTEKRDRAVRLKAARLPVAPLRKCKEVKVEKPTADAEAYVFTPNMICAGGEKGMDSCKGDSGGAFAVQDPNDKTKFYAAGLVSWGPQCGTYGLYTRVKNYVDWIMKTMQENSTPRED
T1 chain 2: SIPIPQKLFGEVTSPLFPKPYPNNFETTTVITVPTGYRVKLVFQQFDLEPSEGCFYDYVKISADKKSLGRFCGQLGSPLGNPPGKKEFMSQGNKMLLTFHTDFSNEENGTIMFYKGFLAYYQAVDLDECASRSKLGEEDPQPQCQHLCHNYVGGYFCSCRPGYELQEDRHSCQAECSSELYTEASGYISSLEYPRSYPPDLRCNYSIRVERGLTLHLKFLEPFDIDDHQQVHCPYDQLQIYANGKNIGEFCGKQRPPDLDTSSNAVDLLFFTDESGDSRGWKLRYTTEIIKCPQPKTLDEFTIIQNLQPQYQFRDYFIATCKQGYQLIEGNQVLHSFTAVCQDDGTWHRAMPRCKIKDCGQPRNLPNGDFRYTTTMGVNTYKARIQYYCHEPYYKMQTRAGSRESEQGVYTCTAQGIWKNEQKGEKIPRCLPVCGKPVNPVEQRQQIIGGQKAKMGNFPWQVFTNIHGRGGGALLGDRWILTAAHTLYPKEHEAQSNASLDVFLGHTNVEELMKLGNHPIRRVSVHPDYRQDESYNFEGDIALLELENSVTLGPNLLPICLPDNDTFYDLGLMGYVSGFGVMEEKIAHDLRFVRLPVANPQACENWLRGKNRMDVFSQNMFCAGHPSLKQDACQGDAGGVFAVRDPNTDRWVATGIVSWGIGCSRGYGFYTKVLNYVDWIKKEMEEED
The experiment in a line: SPR (BIACORE T200), 37 C, ratio of KD at pH 5.8 to KD at pH 7.4. The method, then: (§1) KD (dissociation constant) value of each samples at pH 7.4 and pH 5.8 are determined at 37 degrees C. using BIACORE® T200 instrument (GE Healthcare). Purified Mouse Anti-Human Ig kappa Light Chain (GE Healthcare) can be immobilized onto all flow cells of a CMS sensor chip using an amine coupling kit (GE Healthcare). 20 mM ACES, 150 mM NaCl, 1.2 mM CaCl2, 1 mg/mL BSA (IgG-free), 1 mg/mL CMD, 0.05% Tween® 20, 0.005% NaN3, pH 7.4 or pH 5.8 buffer were used as running buffer. Each antibody can be captured onto the sensor surface by Anti-Human Ig kappa Light chain. Antibody capture levels are aimed at 50 resonance unit (RU). […] Sensor surface is regenerated each cycle with, e.g., Glycine pH 2.0 (GE Healthcare). KD values were obtained using BIACORE® T200 Evaluation software, version 2.0 (GE Healthcare).
(In general: Surface plasmon resonance follows binding to a sensor surface in real time, without labels.)
For B1, the “KD (pH 5.8)/KD (pH 7.4)” value is 117.
On the same count and under the same terms, the value for B2 was 99; that for B3 was 45.
As for B4, the “KD (pH 5.8)/KD (pH 7.4)” value is 116.
Regarding B5, the “KD (pH 5.8)/KD (pH 7.4)” value was 44.
Regarding B6, the “KD (pH 5.8)/KD (pH 7.4)” value is 209.
On the same count and under the same terms, the value for B7 was 100.

For a further assay, the target named is T1, recombinant human C1r2s2 tetramer. Nature of the assay: SPR (BIACORE T200), 37 C, Ab captured via anti-human Ig kappa, human C1r2s2 as analyte, pH 5.8. The method, then:
as §1
For orientation: Kd means a measure of binding affinity in units of concentration. In the case of B1, the equilibrium dissociation constant (Kd) came out at 874 nM.
Take B2: the Kd amounted to 811 nM.
Still for that read-out and setting: the value for B3 was 157 nM.
Turning to B4, the Kd came to 6390 nM.
In the case of B5, the Kd amounted to 588 nM.
On the same count and under the same terms, the value for B6 was 3600 nM.
Take B7: the Kd was determined as 838 nM.

The next assay shares this target. The experiment in a line: SPR (BIACORE T200), 37 C, Ab captured via anti-human Ig kappa, human C1r2s2 as analyte, pH 7.4. The method, then: as §1
Turning to B1, the Kd was determined as 7.46 nM.
Same read-out and setting: the value for B2 was 8.23 nM; that for B3 was 3.48 nM; that for B4 was 55 nM.
Regarding B5, the Kd turned out to be 13.4 nM.
B6: the dissociation constant (Kd) was determined as 17.2 nM.
For the molecule B7, the Kd was 8.39 nM.

The target is the same in a further assay. Nature of the assay: SPR (BIACORE), antibody captured by ProL, human C1r2s2 injected at 100 nM, pH 7.4, 37 C; y axis Response/Capture. As to the method:
Analysis of interaction between antibody variants and the human C1r2s2 prepared as mentioned above was carried out at pH7.4, at 37 degrees C. using BIACORE® T200 instrument (GE Healthcare) or BIACORE® 4000 (GE Healthcare). ProL (BioVision) was immobilized onto a CM4 sensorchip using amine coupling kit (GE Healthcare) according to the recommended settings by GE Healthcare. Antibodies and analytes were diluted into the respective running buffers, ACES pH7.4 (20 mM ACES (N-(2-Acetamido)-2-aminoethanesulfonic acid), 150 mM NaCl, 1.2 mM CaCl2, 1 mg/ml bovine serum albumin (BSA), 1 mg/ml CMD (CM-Dextran sodium salt), 0.05% Tween® 20 (polysorbate 20), 0.005 w/v % NaN3). Each antibody was captured onto the sensor surface by ProL. Antibody capture levels were aimed at 200 resonance units (RU). Then, recombinant human C1r2s2 was injected at concentrations of 25 and 100 nM followed by dissociation at pH7.4. The surface was regenerated using 10 mM Glycine-HCl, pH1.5.
Consider B8, for which the binding result is given as “binds”.
B9: the binding result was “binds”.
Still for that read-out and setting: with B10 the entry was “binds”.
